No end group written: not given here.
Target: Wnt1 signaling (Homo sapiens)
Assay: Wnt luciferase reporter assay in HEK293 cells, Wnt1
Type: cell-based
Protocol: HEK293 cells stably transfected with a firefly luciferase Wnt reporter (Gong et al. (2010) PLoS ONE 59: e12682). and pRL-SV40 Renilla luciferase (Promega) were grown to 90% confluence in DMEM:F12 (50:50) supplemented with 10% FBS, 2 mM GLUTAMAX™ and 40 μg/ml hygromycin. Cells were incubated in a 5% CO2 humidified incubator at 37° C. for 24 h. Following the incubation, the cells were trypsinized (0.05% Gibco 15400-54 in PBS) then diluted to 4×10^5 cells/ml in DMEM:F12 (50:50) supplemented with 10% FBS, 2 mM GLUTAMAX™. 20,000 cells were loaded into individual wells of white microtest 96-well optilux plates (catalog no. 353947) and incubated for ˜24 h. Each well was transfected using FUGENE® HD with Wnt1-pCDNA3.2 (5 ng/well) or Wnt3a-pCDNA3.2 (25 ng/well) then grown for 24 h. […]
Luciferase response in all assays was then measured with Promega's DUAL-GLO® kit according to the manufacturer's instructions, except using half the volume of each reagent. Firefly luminescence and Renilla luminescence were measured on a Perkin Elmer ENVISION™ Multilabel Reader. The ratios of firefly luminescence: Renilla luminescence were calculated and normalized to the ratio in control cells expressing or treated with the indicated Wnt protein. […] Statistical significance was determined using the Holm-Sidak method, with alpha=5.000%.

Sequence of Wnt1 signaling (Homo sapiens) (O75581 20-1613): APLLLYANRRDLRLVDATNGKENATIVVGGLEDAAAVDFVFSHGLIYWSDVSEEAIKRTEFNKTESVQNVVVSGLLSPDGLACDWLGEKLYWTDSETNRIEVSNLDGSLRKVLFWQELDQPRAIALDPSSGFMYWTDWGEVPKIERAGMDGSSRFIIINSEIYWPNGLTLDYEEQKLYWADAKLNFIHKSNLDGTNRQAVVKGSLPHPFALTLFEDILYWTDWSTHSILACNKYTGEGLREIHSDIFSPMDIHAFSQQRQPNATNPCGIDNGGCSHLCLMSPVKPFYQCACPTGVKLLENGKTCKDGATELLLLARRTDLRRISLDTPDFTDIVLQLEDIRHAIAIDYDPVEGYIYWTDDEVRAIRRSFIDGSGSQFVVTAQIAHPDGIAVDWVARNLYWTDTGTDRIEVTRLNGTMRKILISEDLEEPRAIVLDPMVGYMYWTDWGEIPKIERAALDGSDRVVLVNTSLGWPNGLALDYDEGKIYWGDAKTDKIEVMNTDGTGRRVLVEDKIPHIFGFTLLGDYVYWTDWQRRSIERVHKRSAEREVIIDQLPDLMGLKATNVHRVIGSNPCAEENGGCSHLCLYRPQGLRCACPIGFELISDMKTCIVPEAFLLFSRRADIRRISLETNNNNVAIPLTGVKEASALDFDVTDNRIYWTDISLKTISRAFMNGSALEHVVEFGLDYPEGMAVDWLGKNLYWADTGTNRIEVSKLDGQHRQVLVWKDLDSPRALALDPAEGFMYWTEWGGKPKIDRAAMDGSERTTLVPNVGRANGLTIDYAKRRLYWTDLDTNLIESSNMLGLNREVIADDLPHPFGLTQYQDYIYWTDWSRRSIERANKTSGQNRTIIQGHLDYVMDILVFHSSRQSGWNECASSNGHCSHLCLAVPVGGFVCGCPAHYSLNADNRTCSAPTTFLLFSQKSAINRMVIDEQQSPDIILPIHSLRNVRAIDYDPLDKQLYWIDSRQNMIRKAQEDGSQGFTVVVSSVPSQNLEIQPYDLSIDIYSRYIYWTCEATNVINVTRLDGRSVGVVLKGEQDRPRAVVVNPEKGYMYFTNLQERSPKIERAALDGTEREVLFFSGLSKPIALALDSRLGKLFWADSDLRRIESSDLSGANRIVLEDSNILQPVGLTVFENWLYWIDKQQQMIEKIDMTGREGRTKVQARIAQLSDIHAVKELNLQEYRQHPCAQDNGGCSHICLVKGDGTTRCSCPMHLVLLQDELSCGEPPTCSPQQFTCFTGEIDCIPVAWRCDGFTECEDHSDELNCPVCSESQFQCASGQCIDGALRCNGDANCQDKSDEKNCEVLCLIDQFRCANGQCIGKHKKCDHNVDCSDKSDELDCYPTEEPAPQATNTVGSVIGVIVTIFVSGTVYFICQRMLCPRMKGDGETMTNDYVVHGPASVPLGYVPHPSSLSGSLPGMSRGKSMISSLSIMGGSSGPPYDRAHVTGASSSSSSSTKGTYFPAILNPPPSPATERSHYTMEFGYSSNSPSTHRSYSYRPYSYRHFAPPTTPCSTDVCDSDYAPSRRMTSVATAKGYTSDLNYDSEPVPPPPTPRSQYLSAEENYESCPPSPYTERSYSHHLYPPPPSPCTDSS

selectivity for Wnt1 over Wnt3a signaling: 11 fold
Substance: R19: LRP6 E1E2-binding EETI-II variant generated in soluble folded form (GCSNRVKVRACKQDSDCLAGCVCGPNGFCG; ends and bridges not checked; also: three disulfides, pairing not given here)

Reference: patent US11155586B2, “Cystine knot scaffold platform” (Genentech, Inc., priority 2015, dated 2021)
